Earlier results in article PMC8112298.

Biological target: protein Z (Homo sapiens) (UniProt P22891)
Chain of UniProt P22891 (P22891 41-400): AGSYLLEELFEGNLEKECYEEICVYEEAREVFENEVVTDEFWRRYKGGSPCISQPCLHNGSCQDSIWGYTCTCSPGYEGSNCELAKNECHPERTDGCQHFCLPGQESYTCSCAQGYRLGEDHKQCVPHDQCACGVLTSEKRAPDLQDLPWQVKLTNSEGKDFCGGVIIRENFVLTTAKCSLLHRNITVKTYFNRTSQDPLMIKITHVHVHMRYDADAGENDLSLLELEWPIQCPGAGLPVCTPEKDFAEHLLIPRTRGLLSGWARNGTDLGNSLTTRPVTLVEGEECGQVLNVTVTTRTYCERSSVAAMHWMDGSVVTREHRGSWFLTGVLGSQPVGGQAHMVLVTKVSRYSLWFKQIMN

Kd: 10 nM
Substance: ZPI (from UniProt Q9UK55)
